Measured values from patent publication US20100255578A1.

Target: H-296, a polypeptide comprising a heparin binding domain and a CS-1 domain of fibronectin (Homo sapiens (Human)) (UniProt P02751)
Assay: ELISA; H-296 coated at 25 ug/mL in 0.2 M acetate buffer pH 4.4; HRP-labeled FNH3-8, ABTS

FNH3-8 antibody (manufactured by TAKARA BIO INC.) labeled with HRP
absorbance at 405 nm: 0.428
